Assay results from patent US20260069728A1, “MULTI-TARGETING COMPOUND AND USE THEREOF” (Chengdu Shetai Medical Technology Co., Ltd., priority 2023, published 2026).
*1 amine or outer side, *2 acyl side, *3 side chain or, on linkers, in order; H or OH if unused. Where a SMILES comes first, the peptide text is derived from it. Bridges are numbered along the chain shown (N, C = ends). [ ]: non-standard residue; d: D form. The star is where a group is joined. X1 = N#C[C@@H]1CC(F)(F)CN1C(=O)CNC(=O)c1ccnc2ccc(OCCCN3CCN(*)CC3)cc12; DOTA = O=C(O)CN1CCN(CC(=O)O)CCN(CC(=O)*)CCN(CC(=O)O)CC1; 2Nal = N[C@@H](Cc1ccc2ccccc2c1)C(=O)O; Cit = NC(=O)NCCC[C@H](N)C(=O)O; Suc = O=C(CCC(=O)[*:2])[*:1]; AEEA = NCCOCCOCC(=O)O

What was measured:
[1] = Competitive experiment of radioligand against endogenous free amino acids (histidine, cysteine); assay type: physicochemical; settings: 37° C., 2 hours
Procedure: (§1) To an EP tube containing 150 μL of PBS buffer, 150 μL of H2O, and 50 μL of ^68Ga-SDYD01 was added 50 μL of cysteine hydrochloride solution (10 mM) or histidine solution (10 mM). The mixture was vortexed and incubated at 37° C. for 2 hours, after which samples were taken for radio-HPLC analysis.
This study utilized different concentrations of histidine and cysteine solutions to investigate whether histidine (or cysteine) competes with ^68Ga-SDYD01 for metal chelation.
To an EP tube containing 150 μL of PBS buffer, 150 μL of H2O, and 50 μL of ^68Ga-SDYD02 was added 50 μL of cysteine hydrochloride solution (10 mM) or histidine solution (10 mM). The mixture was vortexed and incubated at 37° C. for 2 hours, after which samples were taken for radio-HPLC analysis.
This study utilized different concentrations of histidine and cysteine solutions to investigate whether histidine (or cysteine) competes with ^68Ga-SDYD02 for metal chelation.
as §1, with “^68Ga-SDYD05” for “^68Ga-SDYD01”, “analysis. This study utilized different concentrations of histidine and cysteine solutions to investigate whether histidine (or cysteine) competes with ^68Ga-SDYD05 for metal chelation.” for “analysis.”
as §1, with “^68Ga-SDYD06” for “^68Ga-SDYD01”, “analysis. This study utilized different concentrations of histidine and cysteine solutions to investigate whether histidine (or cysteine) competes with ^68Ga-SDYD06 for metal chelation.” for “analysis.”

[2] = Determination of hydrophilicity/lipophilicity (n-octanol/water distribution coefficient); assay type: physicochemical; settings: HEPES buffer pH=7.4 / n-octanol
Procedure: 10 μL of Purified ^68Ga-SDYD01 was diluted to 500 μL with HEPES buffer (pH=7.4), then 500 μL of n-octanol was added. The mixture was vortexed for 30 min and then centrifuged. Subsequently, 450 μL each of the aqueous and organic phases were taken and centrifuged again. Then, 100 μL each of the aqueous and organic phases were taken, and the radioactivity was measured using a γ counter to calculate the n-octanol/water distribution coefficient (Log Do/w). The measured Log Do/w value for ^68Ga-SDYD01 was −2.54±0.01, and for ^177Lu-SDYD01 was −2.55±0.05.
(§2) 10 μL of purified ^68Ga-SDYD02 was diluted to 500 μL with HEPES buffer (pH=7.4), then 500 μL of n-octanol was added. […] Then, 100 μL each of the aqueous and organic phases were taken, and the radioactivity was measured using a γ counter to calculate the n-octanol/water distribution coefficient (Log Do/w). The measured Log Do/w value for ^68Ga-SDYD02 was −2.47±0.03, and for ^177Lu-SDYD02 was −2.35±0.02.
as §2, with “^68Ga-SDYD05” for “^68Ga-SDYD02”, “−2.37±0.02,” for “−2.47±0.03,”, “^177Lu-SDYD05” for “^177Lu-SDYD02”, “−2.46±0.05. […]” for “−2.35±0.02.”

Row | Compound | competitive chelation in the presence of histidine and cysteine (in words) [1] | radiochemical purity after incubation with cysteine ([1]; cysteine hydrochloride solution (10 mM)) | radiochemical purity after incubation with histidine ([1]; histidine solution (10 mM)) | n-octanol/water distribution coefficient (Log Do/w) [2]
1 | N#C[C@@H]1CC(F)(F)CN1C(=O)CNC(=O)c1ccnc2ccc(OCCCN3CCN(C(=O)CCC(=O)N[C@@H](CCCCNC(=O)CN4CCN(CC(=O)O)CCN(CC(=O)O)CCN(CC(=O)O)CC4)C(=O)NCCOCCOCC(=O)NCCOCCOCC(=O)N[C@@H](CCCNC(=N)N)C(=O)N[C@@H](CCCNC(=N)N)C(=O)N[C@@H](Cc4ccc5ccccc5c4)C(=O)N[C@H]4CSSC[C@@H](C(=O)N[C@@H](CCCNC(=N)N)C(N)=O)NC(=O)[C@H](CCCNC(N)=O)NC(=O)[C@H](CCCNC(=N)N)NC(=O)[C@H](Cc5ccc(O)cc5)NC(=O)[C@@H]5CCCN5C(=O)[C@H](CCCCN)NC(=O)[C@H](CCCCN)NC(=O)[C@H](CCCNC(N)=O)NC(=O)[C@H](Cc5ccc(O)cc5)NC4=O)CC3)cc12 [^68Ga-SDYD01, metal not drawn] ({X1-Suc}-K(DOTA)[AEEA][AEEA]RR[2Nal]CY[Cit]KKPYR[Cit]CR-NH2; disulfide 7-16) | did not undergo competitive chelation | 93% | 93% | −2.54±0.01
2 | CCCCCC(=O)N[C@H]1CSCc2cc(CSCCNC(=O)[C@H](CCCCNC(=O)CN3CCN(CC(=O)O)CCN(CC(=O)O)CCN(CC(=O)O)CC3)NC(=O)COCCOCCNC(=O)COCCOCCNC(=O)CCN3C(=O)CC(SCCNC(=O)CCC(=O)NCc4ccc(NC(=O)COCC(=O)N[C@H](Cc5ccccc5)C(=O)N[C@@H](CCC(N)=O)C(=O)N[C@@H](Cc5c[nH]c6ccccc56)C(=O)N[C@@H](C)C(=O)N[C@H](C(=O)NCC(=O)N[C@@H](Cc5c[nH]cn5)C(=O)NC(CC(C)C)CC(C)C)C(C)C)cc4)C3=O)cc(c2)CSC[C@@H](C(=O)O)NC(=O)[C@H](Cc2ccccc2)NC(=O)[C@H](CCC(N)=O)NC(=O)C([C@@H](C)O)NC(=O)[C@@H]2CCCN2C(=O)[C@@H]2CCCN2C1=O (some centres unmarked) [^68Ga-SDYD04, metal not drawn] |  |  |  | −1.63±0.07
